In assay [1] the target is PD-L1 on the cell surface in the Promega PD1/PD-L1 Blockade Bioassay (Cat# J1250). Kind of assay: cell-based or functional assay.
Assay [2] addresses T1, PDL1 coated in the commercial PD1:PDL1 inhibition assay (Acro Biosystems Cat# EP-101) (Homo sapiens (Human), UniProt Q9NZQ7 19-238).
T1 construct: Kit reagent; construct not described
Kind of assay: Acro Biosystems PD1:PDL1 inhibition assay; PDL1 coated, biotinylated PD1 as competitor; reference Avelumab.

B1: humanised 32.1A1 clone (VHH)
VHH: QVQLVESGGGLVQPGGSLRLSCAASGRTFREYGMGWFRQAPGKGLEWVATISSSGSYSYYADSVKGRFTISRDNSKNTLYLQMNSLRAEDTAVYYCAASSLLRGSSSRAESYDSWGQGTLVTVSS
notes: CDRs of 32.1A1 grafted into a model human VH3 framework; Expressed from pScreen, purified by IMAC, detected with anti-Myc HRP; also called hum-32.1A1; hum32.1A1
On to B1, for which, in assay [1], the “EC50 of luciferase activity fold change, Promega PD-1/PD-L1 blockade bioassay, panel GS542” value amounted to 0.165 µg/mL. Besides, the “amount of blocking relative to Avelumab” value in assay [2] came out at 10 fold.

The values above are taken from patent US20230406933A1 (RANDOX LABORATORIES, published 2023).
